The record followed here is PMC8807725, “EPHA2 mediates PDGFA activity and functions together with PDGFRA as prognostic marker and therapeutic target in glioblastoma” (Signal Transduction and Targeted Therapy, 2022).

The target in the experiment is T1, recombinant human PDGF-AA (human, UniProt P04085 87-211).
T1 construct: Platelet-derived growth factor subunit A (PDGFA), human, recombinant homodimer PDGF-AA; Added to cells at 100 ng/ml; Commercial PDGF-AA is normally the mature chain; also called recombinant human PDGFA homodimer; source: recombinant human protein
Nature of the experiment: ITC; Microcal iTC200; recombinant human receptor extracellular domain and recombinant human PDGF-AA. The note with it: both partners purified. For orientation: Isothermal titration calorimetry measures the heat released or taken up as one component is titrated into another.

B1: recombinant human PDGFRA extracellular domain fused with IgG Fc (rhRA-ECD-Fc) (Fc fusion, UniProt P16234 24-528, looked up)
chain: QLSLPSILPNENEKVVQLNSSFSLRCFGESEVSWQYPMSEEESSDVEIRNEENNSGLFVTVLEVSSASAAHTGLYTCYYNHTQTEENELEGRHIYIYVPDPDVAFVPLGMTDYLVIVEDDDSAIIPCRTTDPETPVTLHNSEGVVPASYDSRQGFNGTFTVGPYICEATVKGKKFQTIPFNVYALKATSELDLEMEALKTVYKSGETIVVTCAVFNNEVVDLQWTYPGEVKGKGITMLEEIKVPSIKLVYTLTVPEATVKDSGDYECAARQATREVKEMKKVTISVHEKGFIEIKPTFSQLEAVNLHEVKHFVVEVRAYPPPRISWLKNNLTLIENLTEITTDVEKIQEIRYRSKLKLIRAKEEDSGHYTIVAQNEDAVKSYTFELLTQVPSSILDLVDDHHGSTGGQTVRCTAEGTPLPDIEWMICKDIKKCNNETSWTILANNVSNIITEIHSRDRSTVEGRVTFAKVEETIAVRCLAKNLLGAENRELKLVAPTLRSELTVA
notes: Platelet-derived growth factor receptor alpha (PDGFRA), human, extracellular domain; Species and subclass of the IgG Fc, construct limits and supplier are not in the main text; also called recombinant PDGFRA extracellular domain; source: recombinant human protein
For B1, the dH was -1070 ± 117.
